The nature of the data set: total protein half-life in vivo (active degradation + dilution); higher = more stable protein.
[1] abbreviates: E. coli NCM3722 delta-clpP delta-lon delta-hslV, growth: N-lim chemostat, doubling time 6 h.
Setting [2] is: E. coli NCM3722 delta-clpP, growth: N-lim chemostat, doubling time 6 h.
Where [3] appears, read: E. coli NCM3722 delta-hslV, growth: N-lim chemostat, doubling time 6 h.
Where [4] appears, read: E. coli NCM3722 delta-lon, growth: N-lim chemostat, doubling time 6 h.
[5] abbreviates: E. coli NCM3722 delta-smpB, growth: N-lim chemostat, doubling time 6 h.
Setting [6] is: wild type E. coli NCM3722, growth: C-lim chemostat, doubling time 3 h.
[7] abbreviates: wild type E. coli NCM3722, growth: C-lim chemostat, doubling time 6 h.
Where [8] appears, read: wild type E. coli NCM3722, growth: C-lim chemostat, doubling time 12 h.
Where [9] appears, read: wild type E. coli NCM3722, growth: N-lim chemostat, doubling time 6 h.
Where [10] appears, read: wild type E. coli NCM3722, growth: N-lim chemostat, doubling time 12 h.
Setting [11] is: wild type E. coli NCM3722, growth: P-lim chemostat, doubling time 6 h.
Setting [12] is: wild type E. coli NCM3722, growth: P-lim chemostat, doubling time 12 h.

± gives the standard deviation of the averaged measurements.

On to “MQIVMFDRQSIFIHGMKISLQQRIPGVSIQGASQADELWQKLESYPEALVMLDGDQDGEFCYWLLQKTVVQFPEVKVLITATDCNKRWLQEVIHFNVLAIVPRDSTVETFALAVNSAAMGMMFLPGDWRTTPEKDIKDLKSLSARQREILTMLAAGESNKEIGRALNISTGTVKAHLESLYRRLEVKNRTQAAMMLNISS”, for which, under setting [1], the “total protein half-life in vivo” value stood at 4.46 h.
Take “MTENIHKHRILILDFGSQYTQLVARRVRELGVYCELWAWDVTEAQIRDFNPSGIILSGGPESTTEENSPRAPQYVFEAGVPVFGVCYGMQTMAMQLGGHVEASNEREFGYAQVEVVNDSALVRGIEDALTADGKPLLDVWMSHGDKVTAIPSDFITVASTESCPFAIMANEEKRFYGVQFHPEVTHTRQGMRMLERFVRDICQCEALWTPAKIIDDAVARIREQVGDDKVILGLSGGVDSSVTAMLLHRAIGKNLTCVFVDNGLLRLNEAEQVLDMFGDHFGLNIVHVPAEDRFLSALAGENDPEAKRKIIGRVFVEVFDEEALKLEDVKWLAQGTIYPDVIESAASATGKAHVIKSHHNVGGLPKEMKMGLVEPLKELFKDEVRKIGLELGLPYDMLYRHPFPGPGLGVRVLGEVKKEYCDLLRRADAIFIEELRKADLYDKVSQAFTVFLPVRSVGVMGDGRKYDWVVSLRAVETIDFMTAHWAHLPYDFLGRVSNRIINEVNGISRVVYDISGKPPATIEWE”: the “total protein half-life in vivo” value was found to be 5.07 ± 0.67 h under setting [1]; 4.31 ± 0.18 h under setting [2]; 4.02 ± 0.45 h under setting [3]; 4.39 ± 0.049 h under setting [4]; 4.28 ± 0.17 h under setting [5]; 3.24 ± 0.23 h under setting [6]. The “total protein half-life in vivo” value under setting [7] was determined as 5.93 ± 0.12 h; the “total protein half-life in vivo” value under setting [8] came to 9.65 ± 0.23 h; the “total protein half-life in vivo” value under setting [9] is 4.17 ± 0.46 h; the “total protein half-life in vivo” value under setting [10] was 6.57 ± 0.082 h; the “total protein half-life in vivo” value under setting [11] was found to be 6.09 ± 0.26 h; the “total protein half-life in vivo” value under setting [12] was 12.3 ± 0.98 h.
On to “MNTIVFVEDDAEVGSLIAAYLAKHDMQVTVEPRGDQAEETILRENPDLVLLDIMLPGKDGMTICRDLRAKWSGPIVLLTSLDSDMNHILALEMGACDYILKTTPPAVLLARLRLHLRQNEQATLTKGLQETSLTPYKALHFGTLTIDPINRVVTLANTEISLSTADFELLWELATHAGQIMDRDALLKNLRGVSYDGLDRSVDVAISRLRKKLLDNAAEPYRIKTVRNKGYLFAPHAWE”, for which the “total protein half-life in vivo” value reads like this: under setting [1], 5.2 ± 1.1 h; under setting [2], 4.29 ± 0.89 h; under setting [3], 3.1 ± 0.46 h; under setting [4], 3.95 ± 0.079 h; under setting [5], 3.58 ± 0.22 h; under setting [6], 3.05 ± 0.78 h. The “total protein half-life in vivo” value was found to be 5.03 ± 0.43 h under setting [7]; 7.3 ± 0.64 h under setting [8]; 3.662 ± 0.028 h under setting [9]; 5.27 ± 0.083 h under setting [10]; 4.82 ± 0.53 h under setting [11]; 7.92 ± 0.17 h under setting [12].
Consider “MTIAIVIGTHGWAAEQLLKTAEMLLGEQENVGWIDFVPGENAETLIEKYNAQLAKLDTTKGVLFLVDTWGGSPFNAASRIVVDKEHYEVIAGVNIPMLVETLMARDDDPSFDELVALAVETGREGVKALKAKPVEKAAPAPAAAAPKAAPTPAKPMGPNDYMVIGLARIDDRLIHGQVATRWTKETNVSRIIVVSDEVAADTVRKTLLTQVAPPGVTAHVVDVAKMIRVYNNPKYAGERVMLLFTNPTDVERLVEGGVKITSVNVGGMAFRQGKTQVNNAVSVDEKDIEAFKKLNARGIELEVRKVSTDPKLKMMDLISKIDK”, for which the “total protein half-life in vivo” value reads like this: under setting [1], 6.3 ± 0.43 h; under setting [2], 6.46 ± 1.2 h; under setting [4], 6.12 ± 0.73 h; under setting [5], 5.94 ± 0.051 h; under setting [6], 3.14 ± 0.049 h; under setting [7], 6.91 ± 0.14 h. Also, the “total protein half-life in vivo” value runs as follows: under setting [8], 13 ± 0.89 h; under setting [9], 5.95 ± 0.48 h; under setting [10], 12 ± 0.24 h; under setting [11], 6.111 ± 0.044 h; under setting [12], 14.3 ± 0.52 h.
For “MSKNYHIAVLPGDGIGPEVMTQALKVLDAVRNRFAMRITTSHYDVGGAAIDNHGQPLPPATVEGCEQADAVLFGSVGGPKWEHLPPDQQPERGALLPLRKHFKLFSNLRPAKLYQGLEAFCPLRADIAANGFDILCVRELTGGIYFGQPKGREGSGQYEKAFDTEVYHRFEIERIARIAFESARKRRHKVTSIDKANVLQSSILWREIVNEIATEYPDVELAHMYIDNATMQLIKDPSQFDVLLCSNLFGDILSDECAMITGSMGMLPSASLNEQGFGLYEPAGGSAPDIAGKNIANPIAQILSLALLLRYSLDADDAACAIERAINRALEEGIRTGDLARGAAAVSTDEMGDIIARYVAEGV”, the “total protein half-life in vivo” value is, setting by setting: under setting [1], 3.45 ± 0.8 h; under setting [2], 2.56 ± 0.42 h; under setting [3], 2.43 ± 0.12 h; under setting [4], 2.96 ± 0.089 h; under setting [5], 2.527 ± 0.018 h; under setting [6], 3.23 ± 0.31 h. The “total protein half-life in vivo” value worked out at 5.057 ± 0.042 h under setting [7]; 8.72 ± 1.7 h under setting [8]; 2.54 ± 0.19 h under setting [9]; 3.52 ± 0.11 h under setting [10]; 5.34 ± 0.7 h under setting [11]; 9.08 ± 0.2 h under setting [12].
Turning to “MIQSQINRNIRLDLADAILLSKAKKDLSFAEIADGTGLAEAFVTAALLGQQALPADAARLVGAKLDLDEDSILLLQMIPLRGCIDDRIPTDPTMYRFYEMLQVYGTTLKALVHEKFGDGIISAINFKLDVKKVADPEGGERAVITLDGKYLPTKPF”, the “total protein half-life in vivo” value by setting is: under setting [1], 5.03 ± 0.21 h; under setting [4], 5.12 h; under setting [7], 5.48 h; under setting [8], 10.6 ± 0.58 h; under setting [9], 3.64 h; under setting [10], 11.9 h. Further, under setting [12], the “total protein half-life in vivo” value came out at 11.1 h.
Regarding “MNIPQLTALCLRYHGVLLDASEEVVHVAVVDAPSHELLDALHFATTKRIEITCWTRQQMEGHASRTQQTLPVAVQEKHQPKAELLTRTLQSALEQRASDIHIEPADNAYRIRLRIDGVLHPLPDVSPDAGVALTARLKVLGNLDIAEHRLPQDGQFTVELAGNAVSFRIATLPCRGGEKVVLRLLQQVGQALDVNTLGMQPLQLADFAHALQQPQGLVLVTGPTGSGKTVTLYSALQKLNTADINICSVEDPVEIPIAGLNQTQIHPRAGLTFQGVLRALLRQDPDVIMIGEIRDGETAEIAIKAAQTGHLVLSTLHTNSTCETLVRLQQMGVARWMLSSALTLVIAQRLVRKLCPHCRRQQGEPIHIPDNVWPSPLPHWQAPGCVHCYHGFYGRTALFEVLPITPVIRQLISANTDVESLETHARQAGMRTLFENGCLAVEQGLTTFEELIRVLGMPHGE”, the “total protein half-life in vivo” value under setting [1] was 3.89 h.
